From patent US20090068110A1, “ANTIBODIES TO INSULIN-LIKE GROWTH FACTOR RECEPTOR” (Genentech, Inc., priority 2006, published 2009)

B1: chimeric 9F2-IgG (antibody, V domains shown)
VH: QIQLVQSGPELKKPGETVKISCKASGYTLANYGMNWVKQAPGKGFKWMGWINTNTGKPTYSDEFKGRFVFSLETSASTAYLLINNLSNEDTATYFCARSIYYYGSRYFNVWGAGTT
VL: DIQMTQSTSSLSASLGDRVTISCRASQDINNYLTWYQQKPDGTVKLLIYYTSRLHSGVPSRFSGSGSGTDYSLTITNLEQEDFATYFCQQGNTLPWTFGEGTKVEIKR
notes: also called human chimeric 9F2
B2: chimeric 9F2: human chimeric version of murine 9F2, human IgG1 (antibody, V domains shown)
VH: QIQLVQSGPELKKPGETVKISCKASGYTLANYGMNWVKQAPGKGFKWMGWINTNTGKPTYSDEFKGRFVFSLETSASTAYLLINNLSNEDTATYFCARSIYYYGSRYFNVWGAGTT
VL: DIQMTQSTSSLSASLGDRVTISCRASQDINNYLTWYQQKPDGTVKLLIYYTSRLHSGVPSRFSGSGSGTDYSLTITNLEQEDFATYFCQQGNTLPWTFGEGTKVEIKR
B3: 2B4: mouse monoclonal anti-IGF-1R antibody from hybridoma 2B4.2.8, ATCC PTA-7009 (antibody, V domains shown)
VH: QIQLVQSGPELKKPGETVKISCKASGYNLANYGLNWVKQAPGEGLKWMGWINTNTGAPTYAEEFKGRFVFFLETSASTAYLQINNLSDEDTATYFCARSIYYYASRYFNVWGAGTS
VL: DIQMTQTTSSLSASLGDKVTISCRASQDISNYLNWYQQKPDGTIKLLIYYTSRLHSGIPSRFSGSGSGTDYSLTISNLEQEDIATYFCQQGNTLPWTFGGGTKVEIKR
B4: chimeric 10H5: human chimeric version of murine 10H5, human IgG1 (antibody, V domains shown)
VH: QVQLQQPGAELVKPGASVTLSCKASGYTFTRFWIHWVKQRPGQGLEWIGEINPSNGRTNYNENFKNKATLTVDTSSSTAYMQLSSLTSEVSVVYYCARGGRLDQWGQGTT
VL: DIVMTQSQKFMSTSLGDRVSVTCKASQNVGSNVAWYQQKPGQSPEALIYSASYRYSGVPDRFTGSGSGTDFTLTISNVQSEDLAEYFCHQYNNYPYTFGGGTKVEIKR

Assays:
cynomolgus-monkey IGF-1R [1] = molecular target: cynomolgus-monkey IGF-1R (cynomolgus monkey, UniProt G7P9I7 31-908); assay: BIACORE surface plasmon resonance: IGF-1R immobilized on CM5 chip (about 500 RU), IgG injected 250-0.78 nM, 25 C, 1:1 Langmuir model (apparent affinity)
cynomolgus-monkey IGF-1R [2] = assay: BIACORE surface-plasmon resonance, cynomolgus-monkey IGF-1R; assay type: binding; conditions: IgG, FIG. 15
Method: Binding affinities of selected antibodies to IGF-1R were determined by surface plasmon resonance measurements on a BIACORE™ 3000 instrument (BIAcore, Inc.). Human, murine, or cynomolgus-monkey IGF-1R was immobilized at a density of about 500 RU on the flow cells of a PIONEER™ CM5 sensor chip. Immobilization was achieved by random coupling through amino groups using a protocol provided by the manufacturer. Sensorgrams were recorded for binding of anti-IGF-1R Fab or IgG to these surfaces by injection of a series of solutions ranging from 500 nM to 3.1 nM and 250 nM to 0.78 nM in two-fold increments, respectively. The signal from the reference cell was subtracted from the observed sensorgram. Kinetic constants were calculated by non-linear regression analysis of the data according to a 1:1 Languir binding model using software supplied by the manufacturer.

MCF7 cells = assay: cell viability assay ([…]-GLO), MCF7; assay type: cell-based, human; conditions: in the presence of IGF-I
Method: The different cell lines were cultured in their respective culture media at 37° C. in a humidified atmosphere of 5% CO2. Subsequently, cells were detached from tissue-culture flasks using the cell-dissociation solution, TRIPLE SELECT™ solution (InVitrogen, Carlsbad, Calif., USA), and centrifuged at 1000 rpm for five minutes. Detached cells were washed once with PBS, counted, and seeded in 96-well plates (Corning, N.Y., USA) at 2000 cells per well in 100 μL of culture media. After an overnight incubation at 37° C. in a humidified atmosphere of 5% CO2, the cell-culture medium was replaced with 50 μL of starvation medium consisting of serum-free RPMI 1640™ medium without phenol red. The cells were then starved for five hours in the incubator before addition of 25 μL of each anti-IGF-1R monoclonal antibody at various dilutions in serum-free RPMI 1640™ phenol red-free media. Later, 25 μL of phenol red-free RPMI 1640™ media supplemented with 4% of fetal bovine serum (FBS) (Sigma) with or without 4 ng/ml of human recombinant IGF-I were added on top of the 50 μL of antibody. The cells were then placed at 37° C. with 5% CO2 for 5 to 6 days. At the end of the assay, cell viability was measured using the […]-GLO® kit according to the manufacturer's instructions (Promega, Madison, Wis., USA).
For the cell viability assay, MCF7 cells were seeded onto 96-well plates at 2000 cells/well and incubated overnight at 37° C. in a humidified atmosphere of 5% CO2/95% air in RPMI 1640™ medium supplemented with 10% FBS (Sigma, St. Louis, Mo.) and 1% GLUTAMAX™ reagent (Promega, Madison, Wis.). The next day cells were starved in serum-free RPMI 1640™ medium (phenol red-free) for five hours followed by addition of serially diluted human chimeric versions of 9F2, 2B4, and 10H5, as well as h10H5.vX, for one hour. Subsequently, phenol red-free PRMI 1640™ medium supplemented with FBS or IGF-I was added to reach a final concentration of 1% FBS and 1 ng/mL IGF-I. Cells were then incubated with continuous IGF-1R antibody exposure. After five days, the cell viability was then determined using a […]-GLO™ kit (Promega, Madison, Wis.) according to the manufacturer's instructions.

IGF-1R [3] = molecular target: T1, IGF-1R (Homo sapiens, UniProt P08069); assay: antibody-induced IGF-1R down-regulation in MCF7 cells, Western blotting; assay type: cell-based; parameters: IGF-1R is normally localized at the plasma membrane of MCF7 cells; endogenous in cells; host or cells: MCF7; conditions: 10 μg/ml, 1, 4, 8 or 24 hours, 10% serum
Method: Further exploration of the mechanism of action of anti-IGF-1R antibodies was carried out by testing the ability of the antibodies of the invention, particularly human chimeric antibodies of 2B4, 9F2, 10H5, as well as human phage antibody YW95.6, to induce IGF-1R down-regulation. MCF7 cells were treated with various antibodies (10 μg/ml) for 1, 4, 8, or 24 hours in the presence of 10% serum-containing medium. The cell lysates were harvested, separated by SDS-PAGE, and analyzed for IGF-1R levels by Western blotting using an anti-IGF-1R beta-chain antibody (Cell Signaling Technology, Inc.; Beverly, Mass., USA) or anti-beta-actin antibody.
In a separate experiment, MCF7 cells were treated with serially diluted h10H5, and the cell lysates were analyzed for IGF-1R and IR levels using anti-IGF-1R and anti-IR β-chain antibodies at 1, 2, 4, and 8 hours post-continuous treatment.

human IGF-1R-ECD = molecular target: T2, human IGF-1R-ECD (Homo sapiens, UniProt P08069); assay: competitive ELISA, blocking of IGF-I/II and IGF-1R interaction; assay type: binding; conditions: antibody 100 nM to 0.0976 nM, biotinyl-IGF-I or IGF-II 60 ng/ml
T2 construct: containing the extracellular domain (ECD, amino acids 1-902) tagged with 10 or 12 histidine residues at the carboxyl terminus; His10 or His12 (C); made in house; host or cells: CHO cells
Method: To determine whether the anti-IGF-1R antibodies could block ligand/receptor interaction, competitive ELISA was utilized. Human IGF-1R-ECD was coated overnight at 4° C. at 1 μg/ml in a 96-well immunoplate (Nalge Nunc International, Rochester, N.Y., USA). The ELISA plate was washed with wash buffer (PBS, 0.05% TWEEN™ 20 surfactant, pH 7.4), and 150 μl/well of blocking buffer (PBS with 0.5% BSA) was added for one hour at room temperature with gentle agitation. Purified anti-IGF-1R antibodies were first subjected to a two-fold dilution from 100 nM to 0.0976 nM in assay buffer (PBS, 0.5% BSA and 0.05% TWEEN™ 20 surfactant, pH 7.4) and added to the immunoplate to incubate at room temperature for one hour. Biothinyl-IGF-I or IGF-II at 60 ng/ml concentrations (Cell Science, Canton, Mass., USA) was then added and incubated for another 30 minutes. The ELISA plate was washed three times, and 100 μl/well of streptavidin-HRP (GE Healthcare, Piscataway, N.J., USA) at a dilution of 1:6,000 was added for 20 minutes. Color development was conducted as described in conjunction with the direct ELISA. The selected anti-IGF-1R antibodies inhibited IGF-I or IGF-II binding to IGF-1R to various degrees (FIGS. 19A and 19B for IGF-I and IGF-II, respectively).

[4] = tested on: IGF-1R signaling (phospho-IGF-1R, AKT, ERK1/2); assay: Western blotting of IGF-1R signaling in MCF7 cells; assay type: cell-based, human
Method: Also examined was the effect of these antibodies on ligand-dependent IGF-1R signaling by directly analyzing IGF-1R phosphorylation as well as major downstream pathways, such as AKT and MAPK activation. In this assay, MCF7 cells were grown in 6-well plates and serum was withdrawn for 16 hours. […] The cells were directly lysed in SDS sample buffer, and the lysate was analyzed by Western blotting using antibodies against IGF-1R, phospho-IGF-1R, AKT, phospho-AKT, ERK1/2, phospho-ERK1/2 (also called MAPK1/2 and phospho-MAPK1/2) (all from Cell Signaling Technology, Inc.; Beverly, Mass., USA).
For the IGF-1R signaling pathway analysis, MCF7 cells were grown in six-well plates for 24 hours and then serum starved (serum-free and phenol-free RPMI medium supplemented with 1 mg/mL BSA) overnight. The cells were first incubated with h10H5 for 20 minutes, then stimulated with 50 ng/mL IGF-1 or 100 ng/mL IGF-11 for ten minutes. Cells were directly lysed in SDS sample buffer to preserve protein phosphorylation. After brief sonication, the lysates were separated by SDS-PAGE and transferred to nitrocellulose membranes (Invitrogen; Carlsbad, Calif.), which were probed with anti-phospho-IGF-1R, AKT, and ERK1/2 antibodies. The same blots were then stripped using Stripping Buffer™ (Pierce Biotechnology; Rockford, Ill.) and re-probed with antibodies against total IGF-1R β, AKT, and ERK1/2.

IGF-1R [5] = molecular target: T1, IGF-1R; assay: KIRA assay of IGF-1R phosphorylation in MCF7 cells; assay type: cell-based; parameters: IGF-1R is normally localized at the plasma membrane of MCF7 cells; endogenous in cells; host or cells: MCF7; conditions: IGF-I 10 ng/ml or IGF-II 50 ng/ml; ranking upon IGF-II stimulation
Method: Also examined was whether the blocking activity of these antibodies was sufficient to interfere with receptor activation, which is measured by IGF-1R phosphorylation. A KIRA assay (kinase receptor activation) was utilized to perform quantitative analysis of IGF-1R phosphorylation in MCF7 cells. Anti-IGF-1R antibodies in serial dilutions (0.19 to 200 nM in medium) were added to MCF7 cells in 96-well plates for one hour. IGF-I (10 ng/ml) or IGF-11 (50 ng/ml) was subsequently added and incubated for ten minutes. The cells were lysed, and the resulting lysates were transferred to an ELISA plate, which was coated with IGF-1R-capturing antibody 3B7 (250 ng/well). After incubation for two hours, the cell lysate was removed, and the plates were washed. Phosphotyrosine-specific antibody 4G10 (Upstate, Charlottesville, Va., USA) was added to detect IGF-1R phosphorylation through TMB peroxidase substrate.

Chain of cynomolgus-monkey IGF-1R (cynomolgus monkey, UniProt G7P9I7 31-908) (G7P9I7 entry or part of it): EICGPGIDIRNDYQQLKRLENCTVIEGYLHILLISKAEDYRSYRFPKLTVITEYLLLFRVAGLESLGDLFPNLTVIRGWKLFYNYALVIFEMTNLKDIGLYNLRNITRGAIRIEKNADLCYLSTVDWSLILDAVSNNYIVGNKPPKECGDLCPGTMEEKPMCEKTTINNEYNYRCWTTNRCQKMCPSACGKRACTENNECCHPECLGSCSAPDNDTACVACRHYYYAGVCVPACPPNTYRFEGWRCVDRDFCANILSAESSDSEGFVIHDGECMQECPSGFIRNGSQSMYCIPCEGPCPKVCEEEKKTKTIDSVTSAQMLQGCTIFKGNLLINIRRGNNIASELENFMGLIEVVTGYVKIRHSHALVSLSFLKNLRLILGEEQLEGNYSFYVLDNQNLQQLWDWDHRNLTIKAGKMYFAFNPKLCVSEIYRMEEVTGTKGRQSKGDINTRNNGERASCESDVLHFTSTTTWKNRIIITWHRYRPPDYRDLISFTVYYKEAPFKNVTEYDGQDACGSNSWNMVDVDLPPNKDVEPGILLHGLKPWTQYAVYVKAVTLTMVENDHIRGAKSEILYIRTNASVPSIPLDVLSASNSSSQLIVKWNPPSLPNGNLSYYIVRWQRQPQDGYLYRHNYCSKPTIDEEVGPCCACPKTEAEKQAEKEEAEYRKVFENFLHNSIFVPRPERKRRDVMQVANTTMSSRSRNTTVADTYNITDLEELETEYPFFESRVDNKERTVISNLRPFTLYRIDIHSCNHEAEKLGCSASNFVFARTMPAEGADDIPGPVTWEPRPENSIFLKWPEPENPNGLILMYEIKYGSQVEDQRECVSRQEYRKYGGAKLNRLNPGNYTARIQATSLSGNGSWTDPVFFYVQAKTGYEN

Row | Molecule | binding to human versus cyno IGF-1R (cynomolgus-monkey IGF-1R [2]) | comparison of inhibitory effect on MCF7 proliferation / viability (MCF7 cells) | IGF-1R down-regulation (IGF-1R [3]) | also measured
1 | B1 |  |  |  | Kd (cynomolgus-monkey IGF-1R [1]): 170 pM
2 | B2 | comparable for human and cyno IGF-1R | equivalent at decreasing the MCF7 cell viability | rapidly down-regulated and reached maximal reduction by eight hours | 
3 | B3 |  |  |  | inhibition of IGF-I or IGF-II binding to IGF-1R (human IGF-1R-ECD): most potent group; inhibition of IGF-I-mediated AKT activation ([4]; serum-starved MCF7, IGF-I 50 ng/ml): potently prevented AKT activation; inhibition of IGF-II-mediated IGF-1R phosphorylation and downstream AKT and MAPK1/2 activation ([4]; serum-starved MCF7, IGF-II 100 ng/ml): remained as strong inhibitors; inhibition of IGF-I/II-mediated IGF-1R phosphorylation (KIRA) (IGF-1R [5]): most effective group
4 | B4 | comparable for human and cyno IGF-1R | equivalent at decreasing the MCF7 cell viability | rapidly down-regulated and reached maximal reduction by eight hours | 
